Results as given in patent US20120214208.

How the values were obtained:
[1] = system: ligase-PprA (phage T4 / Deinococcus radiodurans fusion); settings: transformation assay; no-ligase control 4
[2] = system: T4 DNA ligase (phage T4); settings: transformation assay after 16 C 60 min; no-ligase control 4
[3] = system: p50-ligase (NF-kappaB p50 40-366 fused to N-terminus of T4 DNA ligase) (Homo sapiens / phage T4 fusion); settings: transformation assay; no-ligase control 4

## pCA24N-ompC HindIII/SpeI vector (5032 bp) and insert (1311 bp)
[1]
  activity: 53 colonies
[2]
  activity: 47 colonies
[3]
  activity: 17 colonies
